Laboratory results reported in patent US20160263235A1 (ANGIOCHEM, published 2016).
Square brackets hold non-standard residues; d marks the D form.

Tests used:
[1] = biological target: T1, NT receptor NTSR1 (high affinity NTSR1 receptor) on HT29 cells (human (HT29 is stated to be a human …, UniProt P30989 1-418)); assay: competitive displacement of [3H]-NT from HT29 cells expressing NTSR1
T1 construct: whole, on cells; Endogenous receptor on HT29 cells

[2] = biological target: T1, NT receptor NTSR1 (high affinity NTSR1 …); assay: as above; remark: listed apart in the source

T1 sequence (P30989 whole entry): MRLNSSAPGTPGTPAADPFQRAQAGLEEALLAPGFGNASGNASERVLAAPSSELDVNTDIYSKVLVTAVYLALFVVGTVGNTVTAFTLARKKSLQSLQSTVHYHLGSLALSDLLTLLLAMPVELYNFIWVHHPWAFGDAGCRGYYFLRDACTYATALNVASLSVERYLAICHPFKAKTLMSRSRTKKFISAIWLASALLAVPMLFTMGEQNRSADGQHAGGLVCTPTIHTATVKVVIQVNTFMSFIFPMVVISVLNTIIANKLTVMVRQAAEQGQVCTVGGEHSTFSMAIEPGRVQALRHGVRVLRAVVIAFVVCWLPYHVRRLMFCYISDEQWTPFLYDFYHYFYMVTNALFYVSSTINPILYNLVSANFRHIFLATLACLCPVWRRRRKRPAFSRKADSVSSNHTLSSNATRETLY

- fold weaker binding than native NT [1]: > 1000 fold
- IC50 [2]: 5.39 µM
B1: Ac-Lys-[D-Tyr^11]NT(8-13) (peptide)
peptide: Ac-KRRP[dY]IL-OH
SMILES: CC[C@H](C)[C@H](NC(=O)[C@@H](Cc1ccc(O)cc1)NC(=O)[C@@H]1CCCN1C(=O)[C@H](CCCNC(=N)N)NC(=O)[C@H](CCCNC(=N)N)NC(=O)[C@H](CCCCN)NC(C)=O)C(=O)N[C@@H](CC(C)C)C(=O)O
notes: also called AcLysNT(8-13)D-tyr11; AcLysNT(8-13)(D-Tyr11)
